In assay [1] the target is T1, PD1-Fc recombinant protein (human, UniProt Q15116 25-167).
T1 construct: range 25-167; also called PD1-Fc antigen; PD1-Fc protein; not shown: human IgG1 Fc tag at the C-terminus
Nature of the assay: SPR, PD1-Fc immobilized on CM5 chip, antibody as mobile phase. (In general: In SPR one partner is held on a chip, and binding of the other changes the refractive index at the surface.)

Assay [2] addresses T1, PD1-Fc recombinant protein. Nature of the assay: phage ELISA, wells coated with PD1-Fc (Fc and blocked wells as controls). (ELISA stands for enzyme-linked immunosorbent assay.)

T1 sequence (Q15116 25-167 limits assumed): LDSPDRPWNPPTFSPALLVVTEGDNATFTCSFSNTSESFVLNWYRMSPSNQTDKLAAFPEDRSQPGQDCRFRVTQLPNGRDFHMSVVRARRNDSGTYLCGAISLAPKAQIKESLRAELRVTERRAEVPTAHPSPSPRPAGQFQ

B1: 2-F3-(G4S)3-2-B1 bivalent PD1 antibody (with human IgG1 Fc) (Fc fusion)
chain: QVKLEESGGGLVQPGGSLTVSCVASGFSLDAYTIGWFRQAPGKEREGIICISRGGRITNYAHSVKDRFTISRDGAKNMVYLHMNSLKPEDTGAYYCAAVQRDPFICSGYTQSYDLWGQGTQVTVSSGGGGSGGGGSGGGGSQVQLVESGGGLVQPGGSLTVSCAASGFSLDAYTIGWFRQAPGKEREGIICISRGGRITNYAHSVKDRFTISRDGAKNTVYLHMNSLKPEDTGAYYCAAVQRDPFICSGYTQSYDHWGQGTQVTVSS
notes: Two VHH joined by (G4S)3, subcloned in tandem with human IgG1 Fc; purified on Protein A; not shown: human IgG1 Fc, in tandem C-terminal (vector pcDNA3.4-hIgG1-Fc2)
Take B1: in assay [1], the Kd (as a rule, the equilibrium constant for the complex coming apart) came out at 0.282 nM; the dissociation rate constant (koff) – broadly, a measure of how fast the partners let go of each other – is 0.000118 s⁻¹; the kon – broadly, the second-order rate constant of association – was determined as 418000 M⁻¹ s⁻¹.

B2: 2-C10 VHH displayed on phage (clone from cross-panning) (VHH)
VHH: QVQLVESGGGLVQPGGSLRLSCAASGFSLDAYTIGWFRQAPGQEREGISCISRSGRITNYARSAKDRFTISRDNAKNTVYLEMKNLRPEDTGAYYCAAVEMDPFLCSGYTQSYDQWGQGTQVTVSS
notes: Tested as a phage monoclone (pComF display vector, M13) in phage ELISA; the phage fusion partner is not described
For the molecule B2, the binding result in assay [2] is “binds”.

B3: 2-C10-(G4S)3-2-B1 bivalent PD1 antibody (with human IgG1 Fc) (Fc fusion)
chain: QVQLVESGGGLVQPGGSLRLSCAASGFSLDAYTIGWFRQAPGQEREGISCISRSGRITNYARSAKDRFTISRDNAKNTVYLEMKNLRPEDTGAYYCAAVEMDPFLCSGYTQSYDQWGQGTQVTVSSGGGGSGGGGSGGGGSQVQLVESGGGLVQPGGSLTVSCAASGFSLDAYTIGWFRQAPGKEREGIICISRGGRITNYAHSVKDRFTISRDGAKNTVYLHMNSLKPEDTGAYYCAAVQRDPFICSGYTQSYDHWGQGTQVTVSS
notes: as for B1
As for B3, in assay [1], the Kd was 0.0211 nM, the koff was determined as 3.29e-05 s⁻¹ and the kon stood at 1.56e+06 M⁻¹ s⁻¹.

B4: 2-C10-(G4S)3-2-F3 bivalent PD1 antibody (with human IgG1 Fc) (Fc fusion)
chain: QVQLVESGGGLVQPGGSLRLSCAASGFSLDAYTIGWFRQAPGQEREGISCISRSGRITNYARSAKDRFTISRDNAKNTVYLEMKNLRPEDTGAYYCAAVEMDPFLCSGYTQSYDQWGQGTQVTVSSGGGGSGGGGSGGGGSQVKLEESGGGLVQPGGSLTVSCVASGFSLDAYTIGWFRQAPGKEREGIICISRGGRITNYAHSVKDRFTISRDGAKNMVYLHMNSLKPEDTGAYYCAAVQRDPFICSGYTQSYDLWGQGTQVTVSS
notes: as for B1
For B4, in assay [1], the Kd amounted to 0.28 nM, the dissociation rate constant (koff) turned out to be 8.92e-05 s⁻¹ and the kon came out at 318000 M⁻¹ s⁻¹.

The record behind these values is patent publication US20260242474A1 (PERSONGEN BIOTHERAPEUTICS SUZHOU, published 2026).
